Data reported in patent US20220010021A1 (Sanofi, published 2022).
Residue numbers refer to the chain shown, from its start. In names and notes the source's numbering stands.

T1: human beta-Klotho (KLB) (human, UniProt Q86Z14 53-997)
T1 construct: bought protein, used as analyte in the off-rate screening; also called human KLB; β-Klotho
T1 sequence (looked up): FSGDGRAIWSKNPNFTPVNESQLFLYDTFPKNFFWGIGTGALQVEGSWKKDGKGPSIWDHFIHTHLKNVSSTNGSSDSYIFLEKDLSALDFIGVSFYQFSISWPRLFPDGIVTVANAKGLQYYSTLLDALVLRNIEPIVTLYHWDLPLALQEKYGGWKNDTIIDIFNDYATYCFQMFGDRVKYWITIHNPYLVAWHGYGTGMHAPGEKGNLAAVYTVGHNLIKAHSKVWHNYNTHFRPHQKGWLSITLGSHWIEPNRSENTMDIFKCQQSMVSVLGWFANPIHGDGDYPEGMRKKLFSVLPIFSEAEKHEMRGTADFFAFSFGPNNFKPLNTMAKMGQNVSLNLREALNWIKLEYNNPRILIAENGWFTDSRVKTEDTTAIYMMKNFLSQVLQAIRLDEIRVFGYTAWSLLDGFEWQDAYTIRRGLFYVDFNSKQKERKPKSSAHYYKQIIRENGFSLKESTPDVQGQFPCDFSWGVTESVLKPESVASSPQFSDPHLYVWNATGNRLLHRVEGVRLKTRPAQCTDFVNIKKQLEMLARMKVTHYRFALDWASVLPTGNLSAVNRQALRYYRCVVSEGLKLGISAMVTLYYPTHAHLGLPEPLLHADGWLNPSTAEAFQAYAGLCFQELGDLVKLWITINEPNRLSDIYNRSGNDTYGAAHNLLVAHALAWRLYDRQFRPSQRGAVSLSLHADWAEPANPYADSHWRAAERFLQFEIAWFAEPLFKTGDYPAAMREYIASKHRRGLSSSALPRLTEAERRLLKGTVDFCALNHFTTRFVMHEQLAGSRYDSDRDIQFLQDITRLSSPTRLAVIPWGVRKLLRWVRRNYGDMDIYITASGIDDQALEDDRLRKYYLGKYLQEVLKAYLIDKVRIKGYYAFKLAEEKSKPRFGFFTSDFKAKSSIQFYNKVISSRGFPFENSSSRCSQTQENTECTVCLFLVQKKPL

T2: human beta-Klotho (KLB) (human, UniProt Q86Z14 53-997)
T2 construct: bought protein; also called human KLB
T2 sequence (looked up): T1 sequence (looked up)

B1: 16H7 variant with light chain substitution R53K (antibody, V domains shown)
VH: not shown
VL: SYVLTQPPSVSVAPGQTARITCGGNNIGSESVHWYQQKPGQAPVLVVYDDSDKPSGIPERFSGSNSGNTATLTISRVEAGDEADYYCQVWDGNSDHVVFGGGTKLTVLG
B2: 16H7 variant with light chain substitution R53T (antibody, V domains shown)
VH: not shown
VL: B1 VL with K53T
B3: 16H7 variant with light chain substitution S55V (antibody, V domains shown)
VH: not shown
VL: B1 VL with K53R, S55V
B4: 16H7 variant with light chain substitution V98G (antibody, V domains shown)
VH: not shown
VL: B1 VL with K53R, V98G
B5: Ab0187 (antibody, IgG4, V domains shown)
VH: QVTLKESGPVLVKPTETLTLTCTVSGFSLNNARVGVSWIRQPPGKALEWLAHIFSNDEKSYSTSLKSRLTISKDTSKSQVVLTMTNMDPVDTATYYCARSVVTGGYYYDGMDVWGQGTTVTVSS
VL: B1 VL with N25S, K53R
notes: IgG4 PE
B6: 16H7 variant with light chain substitution S55N (antibody, V domains shown)
VH: not shown
VL: B1 VL with K53R, S55N
B7: 16H7 variant with light chain substitution R53P (antibody, V domains shown)
VH: not shown
VL: B1 VL with K53P
B8: 16H7 variant with light chain substitution V98A (antibody, V domains shown)
VH: not shown
VL: B1 VL with K53R, V98A
B9: 16H7 variant with light chain substitution S55F (antibody, V domains shown)
VH: not shown
VL: B1 VL with K53R, S55F
B10: 16H7 variant with light chain substitution S55E (antibody, V domains shown)
VH: not shown
VL: B1 VL with K53R, S55E
B11: 16H7 variant with light chain substitution S55I (antibody, V domains shown)
VH: not shown
VL: B1 VL with K53R, S55I
B12: 16H7 variant with light chain substitution S51C (antibody, V domains shown)
VH: not shown
VL: B1 VL with S51C, K53R
B13: 16H7 variant with light chain substitution S55P (antibody, V domains shown)
VH: not shown
VL: B1 VL with K53R, S55P
B14: 16H7 variant with light chain substitution R53Q (antibody, V domains shown)
VH: not shown
VL: B1 VL with K53Q
B15: 16H7 variant with light chain substitution S51A (antibody, V domains shown)
VH: not shown
VL: B1 VL with S51A, K53R
B16: 16H7 variant with light chain substitution S55C (antibody, V domains shown)
VH: not shown
VL: B1 VL with K53R, S55C
B17: 16H7 variant with light chain substitution V98K (antibody, V domains shown)
VH: not shown
VL: B1 VL with K53R, V98K
B18: 16H7 variant with light chain substitution S55H (antibody, V domains shown)
VH: not shown
VL: B1 VL with K53R, S55H
B19: 16H7 variant with light chain substitution S51D (antibody, V domains shown)
VH: not shown
VL: B1 VL with S51D, K53R
B20: 16H7 variant with light chain substitution S55Y (antibody, V domains shown)
VH: not shown
VL: B1 VL with K53R, S55Y
B21: 16H7 variant with light chain substitution S55R (antibody, V domains shown)
VH: not shown
VL: B1 VL with K53R, S55R
B22: 16H7 variant with light chain substitution V98H (antibody, V domains shown)
VH: not shown
VL: B1 VL with K53R, V98H
B23: Ab0180 (antibody, IgG4, V domains shown)
VH: not shown
VL: B1 VL with N25S, K53R
notes: IgG4 PE
B24: 16H7 variant with light chain substitution R53S (antibody, V domains shown)
VH: not shown
VL: B1 VL with K53S
B25: 16H7 variant with light chain substitution S51E (antibody, V domains shown)
VH: not shown
VL: B1 VL with S51E, K53R
B26: 16H7 variant with light chain substitution V98Y (antibody, V domains shown)
VH: not shown
VL: B1 VL with K53R, V98Y
B27: Ab0182 (antibody, IgG4, V domains shown)
VH: not shown
VL: B1 VL with D50E, K53R
notes: IgG4 PE
B28: 16H7 variant with light chain substitution S51V (antibody, V domains shown)
VH: not shown
VL: B1 VL with S51V, K53R
B29: 16H7 variant with light chain substitution V98L (antibody, V domains shown)
VH: not shown
VL: B1 VL with K53R, V98L
B30: 16H7 variant with light chain substitution R53M (antibody, V domains shown)
VH: not shown
VL: B1 VL with K53M
B31: 16H7 variant with light chain substitution S55T (antibody, V domains shown)
VH: not shown
VL: B1 VL with K53R, S55T
B32: 16H7 variant with light chain substitution S55G (antibody, V domains shown)
VH: not shown
VL: B1 VL with K53R, S55G
B33: 16H7 variant with light chain substitution V98T (antibody, V domains shown)
VH: not shown
VL: B1 VL with K53R, V98T
B34: 16H7 variant with light chain substitution S55L (antibody, V domains shown)
VH: not shown
VL: B1 VL with K53R, S55L
B35: 16H7 variant with light chain substitution S55D (antibody, V domains shown)
VH: not shown
VL: B1 VL with K53R, S55D
B36: 16H7 variant with light chain substitution V98W (antibody, V domains shown)
VH: not shown
VL: B1 VL with K53R, V98W
B37: 16H7 variant with light chain substitution R53L (antibody, V domains shown)
VH: not shown
VL: B1 VL with K53L
B38: 16H7 variant with light chain substitution S51G (antibody, V domains shown)
VH: not shown
VL: B1 VL with S51G, K53R

Assays:
human beta-Klotho (KLB) [1] = biological target: T1, human beta-Klotho (KLB); experiment: BLI off-rate screening, mAb captured, KLB analyte;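 also: Off-rate taken from the dissociation phase, biosensors held in D-PBS with 0.1% BSA over 1800 s, antibody supernatants diluted to 25 µg/mL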
[2] = biological target: human FGFR1c/KLB receptor complex on iLite FGF21 Assay Ready Cells (human, UniProt P11362 22-822; Q86Z14 1-1044); experiment: cell-based or functional assay; as to Mean E max (%): reference of the scale not given here
[3] = biological target: human FGFR1c + KLB receptor complex on HEK293 iLite FGF21 reporter cells (human, UniProt P11362 22-822; Q86Z14 1-1044); experiment: cell-based or functional assay
human beta-Klotho (KLB) [4] = biological target: T2, human beta-Klotho (KLB); experiment: SPR

Chain of human FGFR1c + KLB receptor complex on HEK293 iLite FGF21 reporter cells (P11362 22-822, chain 1 of 2): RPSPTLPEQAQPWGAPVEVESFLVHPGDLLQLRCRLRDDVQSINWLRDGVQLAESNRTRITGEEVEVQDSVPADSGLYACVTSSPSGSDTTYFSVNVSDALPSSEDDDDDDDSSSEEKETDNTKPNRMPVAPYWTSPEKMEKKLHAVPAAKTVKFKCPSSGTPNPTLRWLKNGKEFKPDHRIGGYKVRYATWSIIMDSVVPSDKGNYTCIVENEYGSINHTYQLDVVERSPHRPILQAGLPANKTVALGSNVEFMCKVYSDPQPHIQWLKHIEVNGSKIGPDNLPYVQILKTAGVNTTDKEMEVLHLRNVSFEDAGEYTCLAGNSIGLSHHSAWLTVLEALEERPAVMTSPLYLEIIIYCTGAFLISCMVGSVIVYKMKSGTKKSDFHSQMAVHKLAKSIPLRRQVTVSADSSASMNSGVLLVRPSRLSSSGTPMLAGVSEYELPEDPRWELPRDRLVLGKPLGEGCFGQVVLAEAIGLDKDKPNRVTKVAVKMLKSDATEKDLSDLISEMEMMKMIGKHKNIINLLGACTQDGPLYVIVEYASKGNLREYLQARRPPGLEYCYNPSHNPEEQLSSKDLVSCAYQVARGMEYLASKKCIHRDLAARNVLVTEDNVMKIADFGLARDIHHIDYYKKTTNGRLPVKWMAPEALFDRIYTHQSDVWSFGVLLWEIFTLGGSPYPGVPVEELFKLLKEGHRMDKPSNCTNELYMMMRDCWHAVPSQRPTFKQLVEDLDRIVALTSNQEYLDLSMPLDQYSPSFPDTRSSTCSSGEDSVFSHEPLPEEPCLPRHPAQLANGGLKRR
Chain of human FGFR1c + KLB receptor complex on HEK293 iLite FGF21 reporter cells (Q86Z14 whole entry, chain 2 of 2): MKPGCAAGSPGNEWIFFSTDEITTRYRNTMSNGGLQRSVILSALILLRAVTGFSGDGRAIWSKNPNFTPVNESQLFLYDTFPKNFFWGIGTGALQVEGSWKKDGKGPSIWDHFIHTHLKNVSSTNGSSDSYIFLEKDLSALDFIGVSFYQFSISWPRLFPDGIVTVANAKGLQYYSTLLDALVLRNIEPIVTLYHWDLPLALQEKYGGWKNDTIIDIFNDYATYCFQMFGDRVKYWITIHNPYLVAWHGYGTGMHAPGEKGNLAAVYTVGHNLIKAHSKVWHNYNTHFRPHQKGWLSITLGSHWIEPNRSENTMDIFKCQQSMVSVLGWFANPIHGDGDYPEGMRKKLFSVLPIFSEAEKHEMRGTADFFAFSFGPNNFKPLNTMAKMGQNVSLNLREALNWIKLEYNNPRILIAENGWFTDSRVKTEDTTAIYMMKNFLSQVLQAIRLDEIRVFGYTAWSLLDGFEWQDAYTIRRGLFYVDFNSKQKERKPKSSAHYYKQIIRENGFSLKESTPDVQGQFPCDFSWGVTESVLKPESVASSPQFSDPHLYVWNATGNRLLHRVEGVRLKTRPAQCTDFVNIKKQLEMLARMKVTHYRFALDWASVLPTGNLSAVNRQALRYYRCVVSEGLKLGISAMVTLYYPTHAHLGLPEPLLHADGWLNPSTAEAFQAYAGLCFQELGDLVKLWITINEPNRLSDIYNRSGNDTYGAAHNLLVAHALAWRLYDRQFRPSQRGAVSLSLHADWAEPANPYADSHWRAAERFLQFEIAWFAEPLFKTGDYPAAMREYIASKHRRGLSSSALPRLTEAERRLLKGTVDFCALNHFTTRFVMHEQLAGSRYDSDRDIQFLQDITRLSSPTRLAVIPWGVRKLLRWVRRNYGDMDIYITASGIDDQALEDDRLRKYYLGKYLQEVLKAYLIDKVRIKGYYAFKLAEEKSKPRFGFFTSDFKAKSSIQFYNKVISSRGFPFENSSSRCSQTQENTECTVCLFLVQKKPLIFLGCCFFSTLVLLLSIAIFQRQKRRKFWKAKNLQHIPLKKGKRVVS
Chain of human FGFR1c/KLB receptor complex on iLite FGF21 Assay Ready Cells (P11362 22-822, chain 1 of 2): as the sequence (P11362 22-822, chain 1 of 2) above
Chain of human FGFR1c/KLB receptor complex on iLite FGF21 Assay Ready Cells (Q86Z14 whole entry, chain 2 of 2): as the sequence (Q86Z14 whole entry, chain 2 of 2) above

Binder | koff (human beta-Klotho (KLB) [1]) | Mean E max (%) [2] | Mean EC50 [2] | EC50 [3] | Emax [3] | koff (human beta-Klotho (KLB) [4])
B1 | 4e-05 s⁻¹ | 98% | 0.114 nM | – | – | –
B2 | 8.7e-05 s⁻¹ | 109% | 0.134 nM | – | – | –
B3 | 4.4e-05 s⁻¹ | 100% | 0.131 nM | – | – | –
B4 | 1.1e-05 s⁻¹ | 105% | 0.118 nM | – | – | –
B5 | – | – | – | 0.04 nmol/L | 2780% | 0.000156 s⁻¹
B6 | 1.7e-05 s⁻¹ | 111% | 0.141 nM | – | – | –
B7 | 0.00028 s⁻¹ | 92% | 0.126 nM | – | – | –
B8 | 4.6e-05 s⁻¹ | 99% | 0.139 nM | – | – | –
B9 | 2.4e-05 s⁻¹ | 97% | 0.095 nM | – | – | –
B10 | 3.8e-05 s⁻¹ | 106% | 0.141 nM | – | – | –
B11 | 1.3e-05 s⁻¹ | 110% | 0.133 nM | – | – | –
B12 | 4.7e-05 s⁻¹ | 112% | 0.147 nM | – | – | –
B13 | 3.2e-05 s⁻¹ | 99% | 0.109 nM | – | – | –
B14 | 0.00024 s⁻¹ | 100% | 0.131 nM | – | – | –
B15 | 4.7e-05 s⁻¹ | 109% | 0.123 nM | – | – | –
B16 | 6.3e-05 s⁻¹ | 91% | 0.244 nM | – | – | –
B17 | 9e-05 s⁻¹ | 106% | 0.111 nM | – | – | –
B18 | 4e-06 s⁻¹ | 111% | 0.122 nM | – | – | –
B19 | 3.7e-05 s⁻¹ | 97% | 0.098 nM | – | – | –

Binder | koff (human beta-Klotho (KLB) [1]) | Mean E max (%) [2] | Mean EC50 [2] | EC50 [3] | Emax [3] | koff (human beta-Klotho (KLB) [4])
B20 | 1.8e-05 s⁻¹ | 113% | 0.126 nM | – | – | –
B21 | 4.9e-05 s⁻¹ | 100% | 0.143 nM | – | – | –
B22 | 1.8e-05 s⁻¹ | 103% | 0.107 nM | – | – | –
B23 | – | – | – | 0.05 nmol/L | 2710% | 0.00024 s⁻¹
B24 | 0.00029 s⁻¹ | 105% | 0.113 nM | – | – | –
B25 | 7.2e-05 s⁻¹ | 107% | 0.108 nM | – | – | –
B26 | 5.9e-05 s⁻¹ | 100% | 0.109 nM | – | – | –
B27 | – | – | – | 0.02 nmol/L | 2290% | 0.000577 s⁻¹
B28 | 2e-05 s⁻¹ | 110% | 0.139 nM | – | – | –
B29 | 0.00013 s⁻¹ | 105% | 0.121 nM | – | – | –
B30 | 0.00018 s⁻¹ | 95% | 0.099 nM | – | – | –
B31 | 1.3e-05 s⁻¹ | 100% | 0.109 nM | – | – | –
B32 | 3.5e-05 s⁻¹ | 104% | 0.128 nM | – | – | –
B33 | 3.1e-05 s⁻¹ | 99% | 0.088 nM | – | – | –
B34 | 8.4e-05 s⁻¹ | 97% | 0.126 nM | – | – | –
B35 | 3.6e-05 s⁻¹ | 109% | 0.146 nM | – | – | –
B36 | 5.6e-05 s⁻¹ | 99% | 0.099 nM | – | – | –
B37 | 2e-05 s⁻¹ | 106% | 0.151 nM | – | – | –
B38 | 0.0001 s⁻¹ | 104% | 0.129 nM | – | – | –
